The text below walks through data of patent US20200347101A1 (PAI LIFE SCIENCES, published 2020).

Values joined by “and” are separate entries in the source; they are usually repeats but may differ in a detail not shown here. Equal entries are not always repeated. Where two headings read alike, the source gives them in different places.

Experiment [1] has as its target DSG2 on cells (HeLa cells in the viral inhibition assay; HT29 cells in the shedding assay) (UniProt Q14126). Briefly: cell-based or functional assay.
Experiment [2] has the same target. Briefly: cell-based or functional assay. This is another data set of the same source.
Experiment [3] shares this target.
In experiment [4] the target is recombinant human DSG2 (human) (UniProt Q14126). Briefly: SPR; summary table, Affinity to DSG2 (nM). On the technique in general: Surface plasmon resonance follows binding to a sensor surface in real time, without labels.
The target is the same in experiment [5]. Briefly: SPR, comparison of the two formats.
Experiment [6] shares this target. Briefly: SPR (Biacore 3000), hDSG2 immobilized, JO protein flowed.
The target is the same in experiment [7]. Briefly: SPR (Biacore 3000), JO protein immobilized, rhDSG2 flowed.
In experiment [8] the target is T1, DSG2 on cells (HeLa cells in the viral inhibition assay; HT29 cells in the shedding assay) (UniProt Q14126 50-1118).
T1 sequence: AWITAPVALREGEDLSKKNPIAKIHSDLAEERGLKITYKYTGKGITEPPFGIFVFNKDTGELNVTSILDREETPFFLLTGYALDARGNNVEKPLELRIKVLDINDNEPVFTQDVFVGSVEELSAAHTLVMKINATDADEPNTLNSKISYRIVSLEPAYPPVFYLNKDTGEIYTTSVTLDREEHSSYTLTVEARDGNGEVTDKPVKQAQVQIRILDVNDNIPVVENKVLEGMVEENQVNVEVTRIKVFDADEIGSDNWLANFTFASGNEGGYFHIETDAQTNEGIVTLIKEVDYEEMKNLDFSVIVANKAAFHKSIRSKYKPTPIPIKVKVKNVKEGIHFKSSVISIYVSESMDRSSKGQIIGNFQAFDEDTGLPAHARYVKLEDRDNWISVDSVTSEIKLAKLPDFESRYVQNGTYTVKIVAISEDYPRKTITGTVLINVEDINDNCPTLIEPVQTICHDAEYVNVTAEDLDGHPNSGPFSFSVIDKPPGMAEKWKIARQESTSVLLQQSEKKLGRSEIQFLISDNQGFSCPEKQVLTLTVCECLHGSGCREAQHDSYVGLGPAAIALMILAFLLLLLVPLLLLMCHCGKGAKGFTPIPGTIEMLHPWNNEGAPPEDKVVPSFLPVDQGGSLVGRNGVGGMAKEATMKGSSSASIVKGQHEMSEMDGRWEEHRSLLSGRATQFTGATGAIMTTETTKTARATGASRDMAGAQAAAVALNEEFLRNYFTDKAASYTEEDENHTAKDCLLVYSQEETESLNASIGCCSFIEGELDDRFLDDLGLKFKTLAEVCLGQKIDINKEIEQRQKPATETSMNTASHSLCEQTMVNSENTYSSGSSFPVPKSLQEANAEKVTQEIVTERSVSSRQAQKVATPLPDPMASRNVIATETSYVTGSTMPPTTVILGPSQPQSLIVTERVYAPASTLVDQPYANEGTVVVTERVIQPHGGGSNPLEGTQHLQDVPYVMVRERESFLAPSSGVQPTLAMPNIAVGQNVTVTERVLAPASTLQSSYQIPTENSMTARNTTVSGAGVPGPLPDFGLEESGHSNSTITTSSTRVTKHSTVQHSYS
Briefly: cell-based or functional assay.

Experiment [9] addresses T1, DSG2 on cells (HeLa cells in the viral …). Briefly: cell-based or functional assay. This is another data set of the same source.
Experiment [10] has as its target T2, recombinant human DSG2 (human, UniProt Q14126 50-609).
T2 construct: also called hDSG2; rhDSG2
T2 sequence: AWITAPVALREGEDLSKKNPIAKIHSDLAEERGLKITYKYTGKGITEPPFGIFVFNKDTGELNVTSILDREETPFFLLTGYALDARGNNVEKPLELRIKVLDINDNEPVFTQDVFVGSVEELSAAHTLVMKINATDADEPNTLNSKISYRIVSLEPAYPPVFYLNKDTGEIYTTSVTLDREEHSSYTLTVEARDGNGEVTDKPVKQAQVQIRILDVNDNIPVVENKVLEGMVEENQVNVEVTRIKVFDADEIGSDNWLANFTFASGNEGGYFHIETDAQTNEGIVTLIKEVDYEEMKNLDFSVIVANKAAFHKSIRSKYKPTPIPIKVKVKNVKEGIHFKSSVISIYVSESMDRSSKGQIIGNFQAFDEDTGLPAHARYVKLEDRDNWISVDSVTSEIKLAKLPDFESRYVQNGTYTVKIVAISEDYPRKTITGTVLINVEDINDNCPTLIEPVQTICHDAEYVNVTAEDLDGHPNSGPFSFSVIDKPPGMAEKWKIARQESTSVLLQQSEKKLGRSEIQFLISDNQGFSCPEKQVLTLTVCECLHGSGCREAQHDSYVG
Briefly: SPR; summary table, Affinity to DSG2 (nM).

In experiment [11] the target is T1, DSG2 on cells (HeLa cells in the viral …). Briefly: cell-based or functional assay. The source holds these as a separate data set.
The target is the same in experiment [12]. Briefly: cell-based or functional assay. The source holds these as a separate data set.
The target of experiment [13] is T2, recombinant human DSG2. Briefly: SPR (Biacore 3000), hDSG2 immobilized, JO protein flowed.
Experiment [14] deals with T1, DSG2 on cells (HeLa cells in the viral …). Briefly: cell-based or functional assay. This is another data set of the same source.
For experiment [15] the target is unchanged. Briefly: cell-based or functional assay. This is another data set of the same source.
For experiment [16], the target named is T2, recombinant human DSG2. Briefly: SPR (Biacore 3000), JO protein immobilized, rhDSG2 flowed.
Experiment [17] addresses T2, recombinant human DSG2. Briefly: SPR, comparison of the two formats.

JO-4 (designed binder): in [1], the DSG2 shedding from HT29 cells relative to PBS treated monolayers (ELISA of the medium) stood at 1.44 fold and the VIA IC50 was determined as 0.067 µg/mL. The molecule further showed a VIA IC50 in experiment [2] of 0.065 µg/mL. Further, in experiment [3], the IC50 (read off the curve); VIA, oxidized (non-reduced) JO4 came out at 0.05 µg/mL and the IC50 (read off the curve); VIA, reduced (DTT) JO4 worked out at 0.05 µg/mL.

The Kd is the constant that tells how readily two partners part at equilibrium. Broadly, the koff is the first-order rate constant of dissociation. Broadly, the kon is the second-order rate constant of association. For “JO-4 (designed binder; other documents disagree on this pair)”, the Kd in experiment [4] amounted to 0.58 nM. For the same molecule, in experiment [5], the fold faster on-rate, JO-4 immobilized against DSG2 immobilized was determined as 3.4 fold; the fold improvement in affinity, JO-4 immobilized against DSG2 immobilized stood at 20 fold; the fold more stable dissociation rate, JO-4 immobilized against DSG2 immobilized was 5.7 fold. In experiment [6], the Kd is 11.4 nM and the koff was found to be 0.00264 s⁻¹. Moreover, in experiment [7], the Kd is 0.58 nM, the off-rate constant (koff) is 0.00046 s⁻¹ and the kon came to 790000 M⁻¹ s⁻¹.

B1: GB5 (designed binder)
chain: MRGSHHHHHHGSKNSIALKNNTLWTGPKPEANSIIEYGKQNPDSKLTLILVKNGGIVNGYVTLMGASDYVNTLFKNKNVSINVELYFDATGHILPDSSSLKTDLELKYKQTADFSARGFMPSTTAYPFVLPNAGTHNENYIFGQSYYKASDGALFPLEVTVMLNKRLPDSRTSYVMTFLWSLNAGLAPETTQATLITSPFTFSYIREDD
B1: the “VIA IC50” value in experiment [8] was determined as 0.241 µg/mL. The “lower viral inhibition relative to JO-1 (VIA)” value in [9] worked out at 5 fold.

B2: GB3 (designed binder)
chain: MRGSHHHHHHGSKVSALKEKVSALKEKVSALKEKVSALKEKVSALKEGSGGGSGGGSGGGSNSIALKNNTLWTGPKPEANSIIEYGKQNPDSKLTLILVKNGGIVNGYVTLMGASDYVNTLFKNKNVSINVELYFDATGHILPDSSSLKTDLELKYKQTADFSARGFMPSTTAYPFDLPNAGTHNENYIFGQSYYKASDGALFPLEVTVMLNKRLPDSRTSYVMTFLWSLNAGLAPETTQATLITSPFTFSYIREDDGGGSGGGSGGGSC
With B2, the “VIA IC50” value in experiment [8] turned out to be 0.029 µg/mL. Moreover, the Kd with recombinant human DSG2 [10] turned out to be 0.11 nM. For the same molecule, in experiment [9], the “DSG2 shedding from HT29 cells relative to PBS treated monolayers (ELISA of the medium)” value was 1.52 fold and the “VIA, DTT-reduced against oxidized protein: reduction in viral inhibition” value was roughly 2 fold. Moreover, in experiment [11], the “VIA IC50” value stood at 0.028 µg/mL. Also, in [12], the “IC50 (read off the curve); VIA, oxidized (non-reduced) GB3” value is roughly 0.03 µg/mL and the “IC50 (read off the curve); VIA, reduced (DTT) GB3” value was roughly 0.06 µg/mL. In the experiment with recombinant human DSG2 [13], the Kd was 0.11 nM and the koff was found to be 0.0005 s⁻¹.

B3: GB7/JOC-x (designed binder)
chain: RGSHHHHHHGSKNSIALKNNTLWTGPKPEANSIIEYGKQNPDSKLTLILVKNGGIVNGYVTLMGASDYVNTLFKNKNVSINVELYFDATGHILPDSSSLKTDLELKYKQTADFSARGFMPSTTAYPFDLPNAGTHNENYIFGQSYYKASDGALFPLEVTVMLNKRLPDSRTSYVMTFLWSLNAGLAPETTQATLITSPFTFSYIREDDGGGSGGGSGGGSC
notes: also called GB7 (ΔDD)
As to B3, the “VIA IC50” value in experiment [8] is 0.032 µg/mL. Further, the Kd with recombinant human DSG2 [10] is 1.2 nM. Further, the “IC50 (read off the curve); VIA, unconjugated mixture JOC-x + poly(I:C)” value in [14] was roughly 0.2 µg/mL. In addition, in experiment [9], the “DSG2 shedding from HT29 cells relative to PBS treated monolayers (ELISA of the medium)” value was determined as 1.39 fold; the “VIA IC50” value is 0.032 µg/mL and 0.055 µg/mL; the “VIA, DTT-reduced against oxidized protein: decrease in viral inhibition” value amounted to 5 fold; the “loss of viral inhibition of unconjugated JOC-x in the presence of poly(I:C) (VIA)” value is roughly 3.9 fold. Further, in [15], the “IC50 (read off the curve); VIA, oxidized (non-reduced) GB7 (JOC-x)” value was roughly 0.02 µg/mL and the “IC50 (read off the curve); VIA, reduced (DTT) GB7 (JOC-x)” value is roughly 0.2 µg/mL. Also, in experiment [11], the “VIA IC50” value worked out at 0.029 µg/mL. In the experiment with recombinant human DSG2 [13], the Kd was determined as 0.58 nM and the off-rate (koff) stood at 0.00083 s⁻¹. In the experiment with recombinant human DSG2 [16], the Kd is 1.19 nM, the koff is 0.00075 s⁻¹ and the kon turned out to be 630000 M⁻¹ s⁻¹. Besides, the “fold reduction in affinity, GB7 immobilized against DSG2 immobilized” value with recombinant human DSG2 [17] was 2 fold.

B4: JOC-DOTA (Eu) (designed binder)
chain: RGSHHHHHHGSKNSIALKNNTLWTGPKPEANSIIEYGKQNPDSKLTLILVKNGGIVNGYVTLMGASDYVNTLFKNKNVSINVELYFDATGHILPDSSSLKTDLELKYKQTADFSARGFMPSTTAYPFDLPNAGTHNENYIFGQSYYKASDGALFPLEVTVMLNKRLPDSRTSYVMTFLWSLNAGLAPETTQATLITSPFTFSYIREDDGGGSGGGSGGGSC
modifications: maleimido-mono-amide-DOTA conjugated to reduced JOC-x (free cysteine), complexed with europium ions
For B4, the “VIA IC50” value in experiment [9] stood at 0.254 µg/mL.

B5: JOC-poly(I:C) conjugate (designed binder)
chain: RGSHHHHHHGSKNSIALKNNTLWTGPKPEANSIIEYGKQNPDSKLTLILVKNGGIVNGYVTLMGASDYVNTLFKNKNVSINVELYFDATGHILPDSSSLKTDLELKYKQTADFSARGFMPSTTAYPFDLPNAGTHNENYIFGQSYYKASDGALFPLEVTVMLNKRLPDSRTSYVMTFLWSLNAGLAPETTQATLITSPFTFSYIREDDGGGSGGGSGGGSC
modifications: poly(I:C) linked through the crosslinker SMPB to the free cysteine on JOC-x
On to B5, for which, in experiment [9], the “IC50 of the conjugate relative to the unconjugated protein (VIA)” value is roughly 6.3 fold and the “VIA IC50” value came out at 0.203 µg/mL.

B6: JOC-DOTA (designed binder)
chain: RGSHHHHHHGSKNSIALKNNTLWTGPKPEANSIIEYGKQNPDSKLTLILVKNGGIVNGYVTLMGASDYVNTLFKNKNVSINVELYFDATGHILPDSSSLKTDLELKYKQTADFSARGFMPSTTAYPFDLPNAGTHNENYIFGQSYYKASDGALFPLEVTVMLNKRLPDSRTSYVMTFLWSLNAGLAPETTQATLITSPFTFSYIREDDGGGSGGGSGGGSC
modifications: maleimido-mono-amide-DOTA conjugated to reduced JOC-x (free cysteine)
For B6, the “VIA IC50” value in experiment [9] was determined as 0.131 µg/mL.

B7: GB10 (designed binder)
chain: MRGSHHHHHHCGSKVSALKEKVSALKEKVSALKEKVSALKEKVSALKEGSGGGSGGGSGGGSNSIALKNNTLWTGPKPEANSIIEYGKQNPDSKLTLILVKNGGIVNGYVTLMGASDYVNTLFKNKNVSINVELYFDATGHILPDSSSLKTDLELKYKQTADFSARGFMPSTTAYPFVLPNAGTHNENYIFGQSYYKASDGALFPLEVTVMLNKRLPDSRTSYVMTFLWSLNAGLAPETTQATLITSPFTFSYIREDD
Regarding B7, in experiment [8], the “VIA IC50” value amounted to 0.026 µg/mL.
